Laboratory results published in PMC11754618 (2025).
Substitutions are numbered along the chain they refer to.

T1: His6-Mm.USP18 (46-368) (mouse, UniProt Q9WTV6 46-368)
T1 chain: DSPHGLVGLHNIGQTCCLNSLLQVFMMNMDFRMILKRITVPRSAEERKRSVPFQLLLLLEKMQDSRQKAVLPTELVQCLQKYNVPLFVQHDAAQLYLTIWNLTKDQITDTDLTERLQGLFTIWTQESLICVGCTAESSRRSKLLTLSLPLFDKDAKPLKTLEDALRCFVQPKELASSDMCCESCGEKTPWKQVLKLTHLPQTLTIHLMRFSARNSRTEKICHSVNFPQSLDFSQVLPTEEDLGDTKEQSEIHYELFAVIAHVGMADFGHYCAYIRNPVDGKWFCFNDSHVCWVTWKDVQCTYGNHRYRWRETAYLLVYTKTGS

T2: His6-Hs.USP18 (16-372) (human, UniProt Q9UMW8 16-372)
T2 chain: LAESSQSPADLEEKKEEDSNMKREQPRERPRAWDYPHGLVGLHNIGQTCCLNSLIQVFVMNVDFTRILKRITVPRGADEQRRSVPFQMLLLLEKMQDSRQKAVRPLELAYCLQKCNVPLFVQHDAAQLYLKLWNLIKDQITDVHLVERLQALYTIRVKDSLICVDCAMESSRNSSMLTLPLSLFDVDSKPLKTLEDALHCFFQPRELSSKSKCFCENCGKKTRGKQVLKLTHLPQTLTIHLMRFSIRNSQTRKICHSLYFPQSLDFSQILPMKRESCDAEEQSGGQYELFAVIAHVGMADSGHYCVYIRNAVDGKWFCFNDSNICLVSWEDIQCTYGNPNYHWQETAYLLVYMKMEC

B1: Ac-mISG15CTD[R153Phe(guan)]-OH (domain or fragment)
chain: LSILVRNERGHSNIYEVFLTQTVDTLKKKVSQREQVHEDQFWLSFEGRPMEDKELLGEYGLKPQSTVIKHLRLFG
modifications: N-terminal acetyl; Phe(guan) (guanidino-phenylalanine) at 153
B2: Ac-mISG15CTD-OH (wild type) (domain or fragment)
chain: B1 chain with F74R
modifications: N-terminal acetyl
B3: Ac-mISG15CTD[R153Agb]-OH (domain or fragment)
chain: B1 chain with F74X
modifications: N-terminal acetyl; Agb (2-amino-4-guanidino-butyric acid) at 153

Biological target: T1, His6-Mm.USP18 (46-368)
Assay: SPR

Row | Binder | Kd [nM]
1 | B1 | 1750
2 | B2 | 2500
3 | B3 | 4500

Biological target: T2, His6-Hs.USP18 (16-372)
Assay: SPR

Row | Binder | Kd [nM]
4 | B1 | 1900
5 | B2 | 4300
6 | B3 | 1200
